Data taken from the Immune Epitope Database (IEDB).

Tests used:
Assay in all cases: IEDB peptide-MHC binding, purified MHC/competitive/radioactivity; ≥ and ≤ were set here for values at or beyond the usual limits of such assays
Details in all cases: source organism: Bordetella pertussis
HLA-B*35:01 = biological target: HLA-B*35:01
HLA-B*07:02 = biological target: HLA-B*07:02
HLA-B*53:01 = biological target: HLA-B*53:01
HLA-B*44:03 = biological target: HLA-B*44:03
HLA-A*02:01 = biological target: HLA-A*02:01
HLA-B*57:01 = biological target: HLA-B*57:01

## LAPTVGVAF
HLA-B*35:01
  IC50: 7.6 µM

## APQAAPLSI
HLA-B*07:02
  IC50: 2.21 µM
HLA-B*53:01
  IC50: 42.4 µM

## QQVQVLQRQ
HLA-B*44:03
  IC50: 15.8 µM

## TPFDIKLKE
HLA-B*53:01
  IC50: 34.7 µM

## YQTYTEWSV
HLA-A*02:01
  IC50: 0.384 µM

## ITNKRAALI
HLA-B*57:01
  IC50: 40 µM

## SPRRARRAL
HLA-B*07:02
  IC50: 0.0138 µM

## LAAIASAAH
HLA-B*35:01
  IC50: 49.8 µM

## TPFIIKLKD
HLA-B*53:01
  IC50: ≥ 78.2 µM

## VLAPRLYLT
HLA-A*02:01
  IC50: 7.98 µM

## LAMPWTFHA
HLA-A*02:01
  IC50: 1.17 µM

## LAWALMLAC
HLA-B*53:01
  IC50: 6.64 µM

## TFTGKVTNG
HLA-B*53:01
  IC50: 39.9 µM

## GLYQTYTEW
HLA-B*53:01
  IC50: 69.9 µM
HLA-B*57:01
  IC50: 41.4 µM

## ISVRVHVSK
HLA-B*57:01
  IC50: 2.74 µM

## ALMLACTGL
HLA-A*02:01
  IC50: 10.8 µM

## LLNAGGTLL
HLA-A*02:01
  IC50: 2.57 µM

## LANDGTIVI
HLA-B*35:01
  IC50: 5.87 µM

## YYDYEDATF
HLA-B*53:01
  IC50: 69.9 µM

## AAGFDPEVQ
HLA-B*35:01
  IC50: 32.7 µM

## IESKISQSV
HLA-B*44:03
  IC50: 39.9 µM
